In the Immune Epitope Database (IEDB):

Columns and labels:
HLA-C*04:01 = assay: IEDB peptide-MHC binding, purified MHC/direct/fluorescence; filed as Kd, often an IC50 or EC50 that approximates it; ≥ and ≤ were set here for values at or beyond the usual limits of such assays
HLA-A*24:02 = assay: as above
HLA-B*18:01 = assay: IEDB peptide-MHC binding, purified MHC/competitive/fluorescence; filed as Kd, often an IC50 or EC50 that approximates it; ≥ and ≤ were set here for values at or beyond the usual limits of such assays; conditions: source organism: Orthomarburgvirus marburgense
HLA-B*15:01 [1] = assay: as above; conditions: source organism: Orthomarburgvirus marburgense
HLA-A*02:06 = assay: as above; conditions: source organism: Orthomarburgvirus marburgense
HLA-A*26:02 = assay: as above; conditions: source organism: Orthomarburgvirus marburgense
HLA-B*35:01 = assay: as above; conditions: source organism: Orthomarburgvirus marburgense
HLA-A*11:01 = assay: IEDB peptide-MHC binding, purified MHC/direct/fluorescence; filed as Kd, often an IC50 or EC50 that approximates it; ≥ and ≤ were set here for values at or beyond the usual limits of such assays; conditions: source organism: Marburg virus - Musoke, Kenya, 1980
HLA-A*26:03 = assay: as above; conditions: source organism: Ravn virus - Ravn, Kenya, 1987
HLA-A*24:03 = assay: as above
HLA-A*02:01 [2] = assay: as above; conditions: source organism: Marburg virus - Musoke, Kenya, 1980
HLA-A*31:01 = assay: as above; conditions: source organism: Marburg virus - Musoke, Kenya, 1980
HLA-A*23:01 = assay: as above; conditions: source organism: Marburg virus - Musoke, Kenya, 1980
HLA-B*57:01 [3] = assay: as above; conditions: source organism: Marburg virus - Musoke, Kenya, 1980
HLA-B*08:01 = assay: as above; conditions: source organism: Ravn virus - Ravn, Kenya, 1987
HLA-B*58:01 = assay: as above; conditions: source organism: Marburg virus - Musoke, Kenya, 1980
HLA-A*01:01 [4] = assay: as above
HLA-B*07:02 = assay: as above; conditions: source organism: Marburg virus - Musoke, Kenya, 1980
HLA-B*15:17 = assay: as above; conditions: source organism: Marburg virus - Musoke, Kenya, 1980
HLA-A*68:02 = assay: as above; conditions: source organism: Marburg virus - Musoke, Kenya, 1980
HLA-B*08:03 = assay: as above; conditions: source organism: Ravn virus - Ravn, Kenya, 1987
HLA-A*69:01 = assay: as above; conditions: source organism: Marburg virus - Musoke, Kenya, 1980
HLA-A*30:02 = assay: IEDB peptide-MHC binding, purified MHC/competitive/radioactivity; filed as Kd, often an IC50 or EC50 that approximates it; ≥ and ≤ were set here for values at or beyond the usual limits of such assays; conditions: source organism: Dengue virus 2 Jamaica/1409/1983
HLA-B*15:01 [5] = assay: as above; conditions: source organism: Dengue virus 2 Jamaica/1409/1983
HLA-B*57:01 [6] = assay: as above; conditions: source organism: Dengue virus 2 Jamaica/1409/1983
HLA-A*32:01 = assay: as above; conditions: source organism: Dengue virus 2 Jamaica/1409/1983
HLA-A*80:01 = assay: IEDB peptide-MHC binding, purified MHC/direct/fluorescence; filed as Kd, often an IC50 or EC50 that approximates it; ≥ and ≤ were set here for values at or beyond the usual limits of such assays
HLA-A*01:01 [7] = assay: IEDB peptide-MHC binding, purified MHC/competitive/fluorescence; filed as Kd, often an IC50 or EC50 that approximates it; ≥ and ≤ were set here for values at or beyond the usual limits of such assays; conditions: source organism: Homo sapiens
HLA-A*02:01 [8] = assay: as above; conditions: source organism: Escherichia coli
HLA-C*05:01 = assay: IEDB peptide-MHC binding, purified MHC/direct/fluorescence; filed as Kd, often an IC50 or EC50 that approximates it; ≥ and ≤ were set here for values at or beyond the usual limits of such assays; conditions: source organism: Escherichia coli B171
[9] = source organism: Marburg virus - Musoke, Kenya, 1980
[10] = source organism: Mycobacterium tuberculosis

For MYMALIAAF, which Kd (HLA-C*04:01; source organism: Yellow fever virus) is on record?
Its Kd is ≥ 20 µM.

For IFPSMYFLM, which Kd (HLA-A*24:02; source organism: Entamoeba histolytica HM-1:IMSS) is on record?
Its Kd is 0.002 µM.

For GFPSLESSF, which Kd (HLA-B*18:01) is on record?
The Kd was 0.263 µM.

What about the Kd (HLA-B*15:01 [1]) of the same sequence?
Its Kd is ≥ 20 µM.

And the Kd (HLA-A*02:06)?
Its Kd is 2.92 µM.

What about the Kd (HLA-A*26:02) of the same sequence?
The Kd was ≥ 20 µM.

What about the Kd (HLA-B*35:01) of the same sequence?
Its Kd is 0.877 µM.

What about the Kd (HLA-A*11:01) of the same sequence?
The Kd was ≥ 20 µM.

And the Kd (HLA-A*26:03)?
The Kd was ≥ 20 µM.

What about the Kd (HLA-A*24:03; [9]) of the same sequence?
The Kd was 0.0395 µM.

What about the Kd (HLA-A*02:01 [2]) of the same sequence?
Its Kd is ≥ 20 µM.

What about the Kd (HLA-A*31:01) of the same sequence?
The Kd was ≥ 20 µM.

What about the Kd (HLA-A*23:01) of the same sequence?
The Kd was 0.0555 µM.

And the Kd (HLA-B*57:01 [3])?
The Kd was ≥ 20 µM.

What about the Kd (HLA-B*08:01) of the same sequence?
Its Kd is ≥ 20 µM.

What about the Kd (HLA-B*58:01) of the same sequence?
Its Kd is ≥ 20 µM.

What about the Kd (HLA-A*01:01 [4]; [9]) of the same sequence?
Its Kd is ≥ 20 µM.

What about the Kd (HLA-B*07:02) of the same sequence?
The Kd was ≥ 20 µM.

What about the Kd (HLA-A*24:02; [9]) of the same sequence?
The Kd was 0.26 µM.

What about the Kd (HLA-B*15:17) of the same sequence?
The Kd was ≥ 20 µM.

And the Kd (HLA-A*68:02)?
The Kd was ≥ 20 µM.

And the Kd (HLA-B*08:03)?
Its Kd is ≥ 20 µM.

And the Kd (HLA-A*69:01)?
Its Kd is ≥ 20 µM.

Which results are given for KTWAYHGSY?
Kd (HLA-A*30:02): 4.05 µM; Kd (HLA-B*15:01 [5]): 0.00288 µM; Kd (HLA-B*57:01 [6]): 0.00457 µM; Kd (HLA-A*32:01): 0.00506 µM; Kd (HLA-A*80:01; source organism: dengue virus type 3): 3 µM

WVDSTPPPG was tested. Which Kd (HLA-A*01:01 [7]) did it give?
The Kd was 11.6 µM.

What about the Kd (HLA-A*80:01; source organism: Homo sapiens) of the same sequence?
Its Kd is ≥ 20 µM.

With HADDIPVPV as the sequence, how does the Kd (HLA-A*02:01 [8]) read?
The Kd was 0.0649 µM.

What about the Kd (HLA-C*04:01; source organism: Escherichia coli B171) of the same sequence?
Its Kd is ≥ 20 µM.

And the Kd (HLA-C*05:01)?
The Kd was 0.004 µM.

Which results are given for KTVCVQATK?
Kd (HLA-A*01:01 [4]; [10]): ≥ 20 µM; Kd (HLA-A*80:01; [10]): ≥ 20 µM

Which Kd (HLA-A*24:03; source organism: Orthohantavirus dobravaense) does the source give for LFPELDCFF here?
Its Kd is 0.011 µM.

And the Kd (HLA-C*04:01; source organism: Kurkino virus)?
The Kd was ≥ 20 µM.
